According to paper doi:10.1101/797431 (bioRxiv, 2019):

Target: E. coli RecQ helicase, wild type (E. coli, UniProt P15043 1-609)
Experiment: fluorescence polarisation

Chain of E. coli RecQ helicase, wild type (P15043 whole entry): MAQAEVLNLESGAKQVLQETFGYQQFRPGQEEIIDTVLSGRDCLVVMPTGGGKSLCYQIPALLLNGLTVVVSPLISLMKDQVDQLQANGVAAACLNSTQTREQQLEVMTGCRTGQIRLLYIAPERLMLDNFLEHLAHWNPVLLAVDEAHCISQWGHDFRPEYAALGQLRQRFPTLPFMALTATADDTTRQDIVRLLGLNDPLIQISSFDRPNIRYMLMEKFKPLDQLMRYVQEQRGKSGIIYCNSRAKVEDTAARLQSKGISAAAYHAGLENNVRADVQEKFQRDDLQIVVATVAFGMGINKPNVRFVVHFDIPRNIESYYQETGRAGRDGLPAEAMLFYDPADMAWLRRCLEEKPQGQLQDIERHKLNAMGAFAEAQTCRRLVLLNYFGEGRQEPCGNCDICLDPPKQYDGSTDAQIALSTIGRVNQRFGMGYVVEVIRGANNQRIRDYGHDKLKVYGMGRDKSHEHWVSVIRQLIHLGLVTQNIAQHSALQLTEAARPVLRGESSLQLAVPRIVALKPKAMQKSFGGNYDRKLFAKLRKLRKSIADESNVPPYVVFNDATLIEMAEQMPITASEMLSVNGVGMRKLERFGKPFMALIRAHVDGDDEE

B1: N-terminally fluorescein-labeled SSB C-terminal peptide (Flu-MDFDDDIPF) (peptide)
peptide: MDFDDDIPF
modifications: fluorescein on the N-terminus
Q: Does B1 bind?
A: binds
